± gives the uncertainty stated by the source.
Assay: self-splicing fitness, log relative to wild type (ln ratio); higher = more splicing; Tetrahymena group I intron in knt gene, E. coli kanamycin selection, DiMSum; sequences stand for … in CUCUCU…GGAGGGAAAAGUUAUCAGGCAUGCACCUGGUAGCUAGUCUUUAAACCAAUAGAUUGCAUCGGUUUAAAAGGCAAGACCGUCAAAUUGCGGGAAAGGGGUCAACAGCCGUUCAGUACCAAGUCUCAGGGGAAACUUUGAGAUGGCCUUGCAAAGGGUAUGGUAAUAAGCUGACGGACAUGGUCCUAACCACGCAGCCAAGUCCUAAGUCAACAGAUCUUCUGUUGAUAUGGAUGCAGUUCACAGACUAAAUGUCGGUCGGGGAAGAUGUAUUCUUCUCAUAAGAUAUAGUCGGACCUCUCCUUAAUGGGAGCUAGCGGAUGAAGUGAUGCAACACUGGAGCCGCUGGGAACUAAUUUGUAUGCGAAAGUAUAUUGAUUAGUUUUGGAGUACUCGUGGUCG
Outline: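 The eight P1ex-region nucleotides of an intron in the knt kanamycin-resistance gene on pET-22b(+) were all randomised and the library put into E. coli BL21(DE3). Six replicate transformations were grown overnight at 37°C or 30°C on LB agar with or without 25 μg/mL kanamycin, together with 100 μg/mL carbenicillin, 50 μM IPTG and 0.2% rhamnose. Colonies were pooled and amplicon-sequenced on an Illumina HiSeq 2500. Fitness from DiMSum is the error-weighted combination of wild-type-normalised replicate fold changes, kanamycin over none.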

Sequence	self-splicing fitness (ln) (37 °C)	self-splicing fitness (ln) (30 °C)
UCUGAGCAAUAUUACGGGUA	-2.42 ± 0.34	
UCUGAGCAAUAUUACGGUCC		-2.51 ± 0.25
UCUGAGCAAUAUUACGGUGU	-1.84 ± 0.28	-2.79 ± 0.19
UCUGAGCAAUAUUACGGUUC	-2.51 ± 0.4	
UCUGAGCAAUAUUACGGUUU	-1.4 ± 0.24	-3.14 ± 0.23
UCUGAGCAAUAUUACGUAUA	-2.39 ± 0.18	-2.36 ± 0.17
UCUGAGCAAUAUUACGUAUG	-2.07 ± 0.17	-3.07 ± 0.18
UCUGAGCAAUAUUACGUGUA	-0.868 ± 0.13	-2.67 ± 0.18
UCUGAGCAAUAUUACGUUGA	-0.656 ± 0.085	-1.89 ± 0.1
UCUUAGCAAUAUUACGAAGG	1.19 ± 0.23	-2 ± 0.39
UCUUAGCAAUAUUACGAAGU	-1.42 ± 0.27	-1.65 ± 0.15
UCUUAGCAAUAUUACGAGGA	-1.58 ± 0.19	-2.34 ± 0.19
UCUUAGCAAUAUUACGAUGG	0.551 ± 0.15	-0.765 ± 0.15
UCUUAGCAAUAUUACGAUGU	-0.623 ± 0.13	-1.95 ± 0.11
UCUUAGCAAUAUUACGCCCG	-1.34 ± 0.34	-1.07 ± 0.32
UCUUAGCAAUAUUACGCCGA	-0.379 ± 0.38	-2.03 ± 0.28
UCUUAGCAAUAUUACGCGAC	-3.07 ± 0.32	
UCUUAGCAAUAUUACGCGCU	-3.27 ± 0.39	-3.3 ± 0.47
UCUUAGCAAUAUUACGCGGU	-2.76 ± 0.26	-3.5 ± 0.2
UCUUAGCAAUAUUACGGAUA	-2.18 ± 0.24	-2.68 ± 0.25
UCUUAGCAAUAUUACGGCGC		-2.61 ± 0.39
UCUUAGCAAUAUUACGGGAU	-2.65 ± 0.36	-3.65 ± 0.33
UCUUAGCAAUAUUACGUAGG	0.0819 ± 0.16	-1.26 ± 0.11
UCUUAGCAAUAUUACGUAUG	-0.892 ± 0.18	-1.33 ± 0.15
UCUUAGCAAUAUUACGUAUU	-3.54 ± 0.39	-3.1 ± 0.28
UCUUAGCAAUAUUACGUGAC	-3.32 ± 0.4	-2.81 ± 0.18
UCUUAGCAAUAUUACGUGGG	-2.21 ± 0.18	-3.96 ± 0.23

Sequence	self-splicing fitness (ln) (37 °C)	self-splicing fitness (ln) (30 °C)
UCUUAGCAAUAUUACGUGGU	-3.1 ± 0.23	-3.39 ± 0.16
UCUUAGCAAUAUUACGUUAU	-2.3 ± 0.28	-3.27 ± 0.28
UCUUAGCAAUAUUACGUUGA	-1.94 ± 0.18	-2.76 ± 0.22
UGAAAGCAAUAUUACGACAC	-1.18 ± 0.4	-2.11 ± 0.34
UGAAAGCAAUAUUACGACCU	0.188 ± 0.12	-0.0194 ± 0.1
UGAAAGCAAUAUUACGACUU	0.423 ± 0.15	-0.765 ± 0.12
UGAAAGCAAUAUUACGAGAU	-2.18 ± 0.19	-2.93 ± 0.14
UGAAAGCAAUAUUACGAGGU	-1.72 ± 0.23	-4.07 ± 0.31
UGAAAGCAAUAUUACGAUAA	-0.129 ± 0.13	-0.879 ± 0.11
UGAAAGCAAUAUUACGCACC	-0.513 ± 0.26	-0.796 ± 0.2
UGAAAGCAAUAUUACGCAGA	-1.93 ± 0.15	-1.68 ± 0.12
UGAAAGCAAUAUUACGCAUU		-3.13 ± 0.23
UGAAAGCAAUAUUACGCCAC	-2.67 ± 0.48	
UGAAAGCAAUAUUACGCCCG	-0.0303 ± 0.21	-0.527 ± 0.15
UGAAAGCAAUAUUACGCGGC	-2.07 ± 0.24	-3.44 ± 0.33
UGAAAGCAAUAUUACGCGUG	-0.284 ± 0.064	-0.951 ± 0.049
UGAAAGCAAUAUUACGCUCG	0.141 ± 0.18	-1.22 ± 0.14
UGAAAGCAAUAUUACGGACU	0.125 ± 0.094	0.219 ± 0.079
UGAAAGCAAUAUUACGGCGA	-0.0348 ± 0.099	-0.22 ± 0.1
UGAAAGCAAUAUUACGGUCC	-0.196 ± 0.095	-0.844 ± 0.072
UGAAAGCAAUAUUACGUAAC	-1.29 ± 0.25	
UGAAAGCAAUAUUACGUAAU	-0.793 ± 0.11	-3.71 ± 0.14
UGAAAGCAAUAUUACGUCCG	0.472 ± 0.14	0.111 ± 0.1
UGAAAGCAAUAUUACGUGGA	-2.69 ± 0.18	-2.89 ± 0.15
UGAAAGCAAUAUUACGUGGC	-2.73 ± 0.25	-3.37 ± 0.17
UGACAGCAAUAUUACGAACU	0.0955 ± 0.17	-0.592 ± 0.14
UGACAGCAAUAUUACGAAUC	-1.68 ± 0.31	-3.49 ± 0.37

Sequence	self-splicing fitness (ln) (37 °C)	self-splicing fitness (ln) (30 °C)
UGACAGCAAUAUUACGACCU	0.0765 ± 0.14	-1.09 ± 0.11
UGACAGCAAUAUUACGACUC	-0.483 ± 0.17	-2.23 ± 0.17
UGACAGCAAUAUUACGAGAC	-2.72 ± 0.46	-3.79 ± 0.49
UGACAGCAAUAUUACGAGGC	-2.95 ± 0.43	-2.35 ± 0.23
UGACAGCAAUAUUACGAUCA	0.116 ± 0.089	-0.329 ± 0.068
UGACAGCAAUAUUACGCAAA	-1.73 ± 0.2	-2.27 ± 0.18
UGACAGCAAUAUUACGCAAC	-1.24 ± 0.25	-2.25 ± 0.29
UGACAGCAAUAUUACGCCGC		-1.26 ± 0.32
UGACAGCAAUAUUACGCGAU	-1.46 ± 0.19	-2.5 ± 0.15
UGACAGCAAUAUUACGCGGA	-1 ± 0.097	-1.75 ± 0.12
UGACAGCAAUAUUACGGCUG	-0.623 ± 0.15	-2.28 ± 0.18
UGACAGCAAUAUUACGGGUU	-2.79 ± 0.2	-4.59 ± 0.41
UGACAGCAAUAUUACGGUAG	-0.41 ± 0.074	-0.921 ± 0.067
UGACAGCAAUAUUACGGUGU	-2.52 ± 0.19	-4.28 ± 0.23
UGACAGCAAUAUUACGUCAU	-2.48 ± 0.18	-3.99 ± 0.27
UGACAGCAAUAUUACGUCGU	-3.25 ± 0.24	-1.56 ± 0.15
UGACAGCAAUAUUACGUCUU	-0.539 ± 0.07	-0.839 ± 0.049
UGACAGCAAUAUUACGUGAA	-0.332 ± 0.094	-1.94 ± 0.076
UGACAGCAAUAUUACGUGAU	-0.351 ± 0.084	-3.05 ± 0.11
UGACAGCAAUAUUACGUGGC	-3.11 ± 0.37	-4.11 ± 0.28
UGAGAGCAAUAUUACGAAGA	-2.35 ± 0.42	-1.45 ± 0.29
UGAGAGCAAUAUUACGAGUA	-2.16 ± 0.46	-2.37 ± 0.49
UGAGAGCAAUAUUACGAGUU	-2.3 ± 0.34	-3.31 ± 0.23
UGAGAGCAAUAUUACGAUCA	-1.1 ± 0.25	-1.62 ± 0.22
UGAGAGCAAUAUUACGCACA	-0.659 ± 0.35	-2.08 ± 0.3

Source: the supplement of paper PMC7877785
